# Reference: patent US9658208B2, “Methods and G proteins for screening and identifying ligands of G protein-coupled receptors” (Fred Hutchinson Cancer Research Center, priority 2011, dated 2017)
# T1: dopamine D4 receptor (Mus musculus, UniProt P51436)
# T1 construct: expressed in transfected cells; host or cells: HEK-293
# T1 sequence (P51436 1-387): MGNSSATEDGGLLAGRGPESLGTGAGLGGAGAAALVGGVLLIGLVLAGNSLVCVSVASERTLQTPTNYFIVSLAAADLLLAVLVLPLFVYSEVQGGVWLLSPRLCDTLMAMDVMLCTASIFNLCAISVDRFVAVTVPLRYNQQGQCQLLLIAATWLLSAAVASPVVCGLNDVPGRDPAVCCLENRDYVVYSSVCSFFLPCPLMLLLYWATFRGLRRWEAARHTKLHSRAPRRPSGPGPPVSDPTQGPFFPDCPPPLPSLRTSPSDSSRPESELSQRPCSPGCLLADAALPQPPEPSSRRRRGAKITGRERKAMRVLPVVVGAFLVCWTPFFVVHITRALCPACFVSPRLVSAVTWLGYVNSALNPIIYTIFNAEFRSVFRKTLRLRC
# B1: Gαs-Gαt-13: Gαs-based chimeric G protein, final 13 C-terminal amino acids substituted with those of Gαt (protein)
# chain: MGCLGNSKTEDQRNEEKAQREANKKIEKQLQKDKQVYRATHRLLLLGAGESGKSTIVKQMRILHVNGFNGEGGEEDVPDYASNSDGEKATKVQDIKNNLKEAIETIVAAMSNLVPPVELANPENQFRVDYILSVMNVPNFDFPPEFYEHAKALWEDEGVRACYERSNEYQLIDCAQYFLDKIDVIKQADYVPSDQDLLRCRVLTSGIFETKFQVDKVNFHMFDVGGQRDERRKWIQCFNDVTAIIFVVASSSYNMVIREDNQTNRLQEALNLFKSIWNNRWLRTISVILFLNKQDLLAEKVLAGKSKIEDYFPEFARYTTPEDATPEPGEDPRVTRAKYFIRDEFLRISTASGDGRHYCYPHFTCAVDTENIRRVFNDCRDIIIKENLKDCGLF
# modifications: Chimeric protein
# notes: Gαs-based chimeric G protein, final 13 C-terminal amino acids substituted with those of Gαt
# Biological target: T1, dopamine D4 receptor
# Assay: CRE-SEAP reporter gene assay, coupling with dopamine D4
# Type: cell-based
# Details: HEK-293 cells, 1 uM dopamine
# Text: The GPCRs examined were those that couple with Gαi/Gαo subunits (serotonin 1b, neuropeptide Y1, leukotriene B4, and dopamine D4), Gαq (GNRH, UDP, and calcium-sensing receptors), and the orphan mammalian sweet taste receptor complex (T1R2 and T1R3) with unknown coupling preference. The Gαs-based chimeric G proteins examined in this example were Gαs-Gαi-5, Gαs-Gαt-13 (SEQ ID NO: 3), Gαs-Gαo-13 (SEQ ID NO: 4), Gαs-Gαi-13 (SEQ ID NO: 5), Gαs-Gαz-6 (SEQ ID NO: 18), Gαs-Gα15-13 (SEQ ID NO: 7), Gαs-Gαk-5 (SEQ ID NO: 2), and Gαs-Gαq-13 (SEQ ID NO: 8). The chimeric G protein constructs were prepared as described herein. For the coupling assay, HEK-293 cells were cotransfected with each of the Gαs-based chimeric G protein constructs of interest together with the CRE-SEAP reporter gene construct and a cDNA encoding the GPCR to be tested. The transfected cells were cultured in the presence or absence of a GPCR ligand and then assayed for SEAP activity.
# Chimeric G protein cloning: An insert containing rat Gαs cDNA was cut out using the restriction enzymes SaII and HinDIII, and ligated into pcDNA3.1(−) cut with XhoI and HinDIII. […]
# Following transfection, the cells were maintained for 48 hours in 200 ul serum free media containing GPCR ligand. […] Fluorescence was then measured using a CytoFluor 4000 multi well plate reader (Applied Biosystems).
molecule,measurement,value
B1,coupling with dopamine D4 receptor,did not couple
